Experimental data from patent US20250144178A1, “PHARMACEUTICAL COMPOSITION FOR CANCER TREATMENT COMPRISING FUSION PROTEIN INCLUDING IL-12 AND ANTI-FAP ANTIBODY AND ANTICANCER AGENT” (KANAPH THERAPEUTICS INC., priority 2022, published 2025).

Columns and labels:
HEK-Blue IL-12 cells = assay: Signaling ability in IL-12 recognizing cells (STAT4 inducible SEAP reporter); assay type: cell-based, human; details: serial dilution from 4 nM, 24 hours, FIG. 18
Protocol: The HEK-Blue IL-12 cell line transformed with the IL-12 receptor gene and the STAT4 inducible SEAP reporter gene into HEK293 cells, which are human embryonic kidney fibroblasts, was obtained from Invivogen (San Diego, USA). The HEK-Blue IL-12 cells were maintained in DMEM (GIBCO) containing 10% FBS (GIBCO), 100 μg/ml Normocin and 1×HEK-Blue selection.
Specifically, the HEK-Blue IL-12 cell line, which is an IL-12 recognizing cell, was diluted to 2.8×10^5 cells/ml and dispensed at 180 μl/well. Recombinant human IL-12, T1.01m, T1.02m, T1.03m and T1.12m were suspended at 4 nM and diluted by serial dilution. HEK-Blue IL-12 cells were treated with the diluted recombinant human IL-12, T1.01m, T1.02m, T1.03m and T1.12m. After 24 hours of treatment, the cell supernatant was collected and mixed with QUANTI-Blue Solution (Invivogen) in a 96-well plate. The reporter expression level was measured at 620 nm using a spectrophotometer (Thermo Fisher).

[1] = system: FAP-overexpressing mouse colorectal cancer CT26; assay: Tumor growth inhibition by IL-12 mutation, FAP-overexpressing CT26, single i.v. dose; assay type: in vivo, BALB/c mice; details: 10 μg i.v. once, 15 days after administration, control PBS, FIG. 28
Protocol: In order to evaluate the change in IL-12 activity according to the presence and extent of amino acid mutation, FAP-overexpressing mouse colorectal cancer CT26 was prepared by resuspending in PBS at a concentration of 5×10^5 cells/100 μl, and the tumor growth inhibitory ability was evaluated in a tumor animal model prepared by transplantation of the cells into 5-week-old female BALB/c mice.
Specifically, when the size of the tumor in the model reached 100 mm^3, the mice were randomly divided into groups. 100 μl of phosphate buffered saline (PBS) was administered once via tail vein injection of the control, and each of T1.01m, T1.02m and T1.03m was intravenously administered once at a dose of 10 μg.

[2] = system: mouse FAP overexpressing B16F10 melanoma; assay: Melanoma model, mouse FAP overexpressing B16F10; assay type: in vivo, C57BL/6J mice; details: 10 μg and 100 μg i.v. once, control PBS, FIG. 30
Protocol: In order to identify the anticancer effect through immune activation of the fusion protein, mouse FAP was overexpressed in the mouse melanoma cell line B16F10, which is known to have little immune cell infiltration, and then transplanted into C57BL/6J mice, and the tumor growth inhibitory ability was evaluated.
Specifically, the cells in culture were resuspended in Hanks' Balanced salt solution (HBSS, Gibco), and then 100 μl of 1×10^6 tumor cells per each mouse were transplanted into the subcutaneous region of the left the dorsal flank side of 6-week-old C57BL/6J mice.
Next, for drug efficacy evaluation, when the size of the tumor reached 70 to 100 mm^3, the mice were randomly divided into groups. As the control, PBS was administered, and as the test group, T1.03m was intravenously administered once at a dose of 10 μg and 100 μg.

[3] = system: FAP-overexpressing CT26 cells; assay: Tumor growth inhibition, FAP-overexpressing CT26 model, repeated i.p. dosing; assay type: in vivo, BALB/c mice; details: 18 days after administration, control 50 μg T1.24m
Protocol: In order to prepare an mouse FAP-expressing tumor animal model, FAP overexpression was induced in CT26, a mouse colorectal cancer cell line. Specifically, the FAP-overexpressing CT26 cells in culture were resuspended in Hanks' Balanced salt solution (HBSS, Gibco), and then each 100 μl of 1×10^6 tumor cells per each mouse was transplanted into the subcutaneous region of the left dorsal side of 6-week-old BALB/c mice using a 1 cc syringe (25G) to obtain a mouse FAP-expressing colorectal cancer animal model. The tumor size was measured using a digital vernier caliper by measuring the short axis and long axis of the tumor, and the tumor size was measured twice a week using the calculation formula of (short axis, mm) 2×(long axis, mm)×0.5.
Next, for drug efficacy evaluation, when the size of the tumor reached 100 mm^3, the mice were randomly divided into groups. Each experimental group consisted of 8 animals, and as a control, each 100 μl of 50 μg of T1.24m was intraperitoneally administered four times at an interval of 3 days. In the test group, each 100 μl of 10 μg and 100 μg of T1.01m, and 2 μg, 10 μg and 100 μg of T1.02m, respectively, were intraperitoneally administered four times at an interval of 3 days to evaluate the tumor growth inhibitory ability.

B1: T1.01m: K&H bispecific: anti-mu FAP/mu IL-12, mu IgG2a DANG (seq18, seq19, seq20) (antibody)
heavy: QVQLQQSGAELARPGASVNLSCKASGYTFTNNGINWLKQRTGQGLEWIGEIYPRSTNTLYNEKFKGKATLTADRSSNTAYMELRSLTSEDSAVYFCARTLTAPFAFWGQGTLVTVSAAKTTAPSVYPLAPVCGDTTGSSVTLGCLVKGYFPEPVTLTWNSGSLSSGVHTFPAVLQSDLYTLSSSVTVTSSTWPSQSITCNVAHPASSTKVDKKIEPRGPTIKPCPPCKCPAPNLLGGPSVFIFPPKIKDVLMISLSPIVTCVVVAVSEDDPDVQISWFVNNVEVHTAQTQTHREDYGSTLRVVSALPIQHQDWMSGKEFKCKVNNKDLPAPIERTISKPKGSVRAPQVYVLPPPEEEMTKKQVTLWCMVTDFMPEDIYVEWTNNGKTELNYKNTEPVLDSDGSYFMYSKLRVEKKNWVERNSYSCSVVHEGLHNHHTTKSFSRTPGK
light: QIVLTQSPAIMSASPGEKVTMTCSASSGVNFMHWYQQKSGTSPKRWIFDTSKLASGVPARFSGSGSGTSYSLTISSMEAEDAATYYCQQWSFNPPTFGGGTKLEIKRADAAPTVSIFPPSSEQLTSGGASVVCFLNNFYPKDINVKWKIDGSERQNGVLNSWTDQDSKDSTYSMSSTLTLTKDEYERHNSYTCEATHKTSTSPIVKSFNRNEC
chain: MWELEKDVYVVEVDWTPDAPGETVNLTCDTPEEDDITWTSDQRHGVIGSGKTLTITVKEFLDAGQYTCHKGGETLSHSHLLLHKKENGIWSTEILKNFKNKTFLKCEAPNYSGRFTCSWLVQRNMDLKFNIKSSSSSPDSRAVTCGMASLSAEKVTLDQRDYEKYSVSCQEDVTCPTAEETLPIELALEARQQNKYENYSTSFFIRDIIKPDPPKNLQMKPLKNSQVEVSWEYPDSWSTPHSYFSLKFFVRIQRKKEKMKETEEGCNQKGAFLVEKTSTEVQCKGGNVCVQAQDRYYNSSCSKWACVPCRVRSGGGGSGGGGSGGGGSRVIPVSGPARCLSQSRNLLKTTDDMVKTAREKLKHYSCTAEDIDHEDITRDQTSTLKTCLPLELHKNESCLATRETSSTTRGSCLPPQKTSLMMTLCLGSIYEDLKMYQTEFQAINAALQNHNHQQIILDKGMLVAIDELMQSLNHNGETLRQKPPVGEADPYRVKMKLCILLHAFSTRVVTINRVMGYLSSAGGGGSGGGGSEPRGPTIKPCPPCKCPAPNLLGGPSVFIFPPKIKDVLMISLSPIVTCVVVAVSEDDPDVQISWFVNNVEVHTAQTQTHREDYGSTLRVVSALPIQHQDWMSGKEFKCKVNNKDLPAPIERTISKPKGSVRAPQVYVLPPPEEEMTKKQVTLSCAVTDFMPEDIYVEWTNNGKTELNYKNTEPVLDSDGSYFMVSKLRVEKKNWVERNSYSCSVVHEGLHNHHTTKSFSRTPGK
What does the source list for B1?
IL-12 recognition / STAT4 reporter gene expression (620 nm absorbance) (HEK-Blue IL-12 cells): IL-12 was recognized, and STAT4 expressed a reporter gene by inducing phosphorylation; tumor growth inhibitory ability compared to the control [1]: excellent tumor growth inhibitory ability; tumor growth inhibitory ability compared to the control [2]: high tumor growth inhibitory ability; tumor growth inhibitory ability compared to control ([3]; 10 μg i.p. four times at an interval of 3 days): 84.9%; tumor growth inhibitory ability compared to control ([3]; 100 μg i.p. four times at an interval of 3 days): 85.6%
